Measured values reported in patent US6133013A, “Truncated aspartase enzyme derivatives and uses thereof” (The University of Akron, priority 1999, dated 2000).

Substrate: N[C@@H](CC(=O)O)C(=O)O
Assay: Spectrophotometric aspartase assay, deamination of L-aspartic acid to fumarate (240 nm)
Type: biochemical, Escherichia coli
Conditions: 30 mM Hepes pH 7.0, 10 mM magnesium acetate, 30° C.
Method: Catalytic activity was determined spectrophotometrically by measuring the formation of fumarate at 240 nm (E240 =2.53 mM^-1 cm^-1) produced by the enzyme-catalyzed deamination of aspartic acid. A standard assay mix contained 30 mM Hepes buffer, pH 7.0, 10 mM magnesium acetate, and varying concentrations of L-aspartic acid at 30° C.

B1: E. coli aspartase truncated variant A469stop, residues 1-468 of SEQ ID NO: 1 (Escherichia coli K-12) (protein)
chain: MSNNIRIEEDLLGTREVPADAYYGVHTLRAIENFYISNNKISDIPEFVRGMVMVKKAAAMANKELQTIPKSVANAIIAACDEVLNNGKCMDQFPVDVYQGGAGTSVNMNTNEVLANIGLELMGHQKGEYQYLNPNDHVNKCQSTNDAYPTGFRIAVYSSLIKLVDAINQLREGFERKAVEFQDILKMGRTQLQDAVPMTLGQEFRAFSILLKEEVKNIQRTAELLLEVNLGATAIGTGLNTPKEYSPLAVKKLAEVTGFPCVPAEDLIEATSDCGAYVMVHGALKRLAVKMSKICNDLRLLSSGPRAGLNEINLPELQAGSSIMPAKVNPVVPEVVNQVCFKVIGNDTTVTMAAEAGQLQLNVMEPVIGQAMFESVHILTNACYNLLEKCINGITANKEVCEGYVYNSIGIVTYLNPFIGHHNGDIVGKICAETGKSVREVVLERGLLTEAELDDIFSVQNLMHPAYK
notes: made in house; host or cells: E. coli overproducing strain
**Q.** What does the source list for B1?
**A.** Km (other: A469stop): 10.2 mM; kcat (other: A469stop): 0.66 ± 0.0167 s⁻¹; kcat/Km (other: A469stop): 65 M⁻¹ s⁻¹

B2: E. coli aspartase truncated variant R471stop, residues 1-470 of SEQ ID NO: 1 (Escherichia coli K-12) (protein)
chain: MSNNIRIEEDLLGTREVPADAYYGVHTLRAIENFYISNNKISDIPEFVRGMVMVKKAAAMANKELQTIPKSVANAIIAACDEVLNNGKCMDQFPVDVYQGGAGTSVNMNTNEVLANIGLELMGHQKGEYQYLNPNDHVNKCQSTNDAYPTGFRIAVYSSLIKLVDAINQLREGFERKAVEFQDILKMGRTQLQDAVPMTLGQEFRAFSILLKEEVKNIQRTAELLLEVNLGATAIGTGLNTPKEYSPLAVKKLAEVTGFPCVPAEDLIEATSDCGAYVMVHGALKRLAVKMSKICNDLRLLSSGPRAGLNEINLPELQAGSSIMPAKVNPVVPEVVNQVCFKVIGNDTTVTMAAEAGQLQLNVMEPVIGQAMFESVHILTNACYNLLEKCINGITANKEVCEGYVYNSIGIVTYLNPFIGHHNGDIVGKICAETGKSVREVVLERGLLTEAELDDIFSVQNLMHPAYKAK
notes: as for B1
**Q.** With B2 as the protein, how does the Km (other: R471stop) read?
**A.** The Km was 4.5 mM.

**Q.** And the kcat (other: R471stop)?
**A.** The kcat was 1.18 ± 0.0483 s⁻¹.

**Q.** What about the kcat/Km (other: R471stop) of the same protein?
**A.** Its kcat/Km is 262 M⁻¹ s⁻¹.

B3: E. coli aspartase truncated variant Y472stop, residues 1-471 of SEQ ID NO: 1 (Escherichia coli K-12) (protein)
chain: MSNNIRIEEDLLGTREVPADAYYGVHTLRAIENFYISNNKISDIPEFVRGMVMVKKAAAMANKELQTIPKSVANAIIAACDEVLNNGKCMDQFPVDVYQGGAGTSVNMNTNEVLANIGLELMGHQKGEYQYLNPNDHVNKCQSTNDAYPTGFRIAVYSSLIKLVDAINQLREGFERKAVEFQDILKMGRTQLQDAVPMTLGQEFRAFSILLKEEVKNIQRTAELLLEVNLGATAIGTGLNTPKEYSPLAVKKLAEVTGFPCVPAEDLIEATSDCGAYVMVHGALKRLAVKMSKICNDLRLLSSGPRAGLNEINLPELQAGSSIMPAKVNPVVPEVVNQVCFKVIGNDTTVTMAAEAGQLQLNVMEPVIGQAMFESVHILTNACYNLLEKCINGITANKEVCEGYVYNSIGIVTYLNPFIGHHNGDIVGKICAETGKSVREVVLERGLLTEAELDDIFSVQNLMHPAYKAKR
notes: as for B1
**Q.** Which results are given for B3?
**A.** Km (other: Y472stop): 3.3 mM; kcat (other: Y472stop): 1.62 ± 0.102 s⁻¹; kcat/Km (other: Y472stop): 492 M⁻¹ s⁻¹

B4: E. coli aspartase (L-aspartate ammonia-lyase, E.C. 4.3.1.1), wild-type, SEQ ID NO: 1 (Escherichia coli K-12) (protein)
chain: MSNNIRIEEDLLGTREVPADAYYGVHTLRAIENFYISNNKISDIPEFVRGMVMVKKAAAMANKELQTIPKSVANAIIAACDEVLNNGKCMDQFPVDVYQGGAGTSVNMNTNEVLANIGLELMGHQKGEYQYLNPNDHVNKCQSTNDAYPTGFRIAVYSSLIKLVDAINQLREGFERKAVEFQDILKMGRTQLQDAVPMTLGQEFRAFSILLKEEVKNIQRTAELLLEVNLGATAIGTGLNTPKEYSPLAVKKLAEVTGFPCVPAEDLIEATSDCGAYVMVHGALKRLAVKMSKICNDLRLLSSGPRAGLNEINLPELQAGSSIMPAKVNPVVPEVVNQVCFKVIGNDTTVTMAAEAGQLQLNVMEPVIGQAMFESVHILTNACYNLLEKCINGITANKEVCEGYVYNSIGIVTYLNPFIGHHNGDIVGKICAETGKSVREVVLERGLLTEAELDDIFSVQNLMHPAYKAKRYTDESEQ
notes: made in house; host or cells: E. coli overproducing strain (aspA in pTZ18R)
**Q.** How did the Km (other: wild-type) turn out when B4 was run?
**A.** Its Km is 1.8 mM.

B5: E. coli aspartase truncated variant Y467stop (stop codon at position 467) (Escherichia coli K-12; E32V) (protein)
chain: MSNNIRIEEDLLGTREVPADAYYGVHTLRAIVNFYISNNKISDIPEFVRGMVMVKKAAAMANKELQTIPKSVANAIIAACDEVLNNGKCMDQFPVDVYQGGAGTSVNMNTNEVLANIGLELMGHQKGEYQYLNPNDHVNKCQSTNDAYPTGFRIAVYSSLIKLVDAINQLREGFERKAVEFQDILKMGRTQLQDAVPMTLGQEFRAFSILLKEEVKNIQRTAELLLEVNLGATAIGTGLNTPKEYSPLAVKKLAEVTGFPCVPAEDLIEATSDCGAYVMVHGALKRLAVKMSKICNDLRLLSSGPRAGLNEINLPELQAGSSIMPAKVNPVVPEVVNQVCFKVIGNDTTVTMAAEAGQLQLNVMEPVIGQAMFESVHILTNACYNLLEKCINGITANKEVCEGYVYNSIGIVTYLNPFIGHHNGDIVGKICAETGKSVREVVLERGLLTEAELDDIFSVQNLMHPA
notes: made in house; host or cells: E. coli (aspA in pTZ18R)
**Q.** B5 was tested. Which Km (other: Y467stop) did it give?
**A.** The Km was 31 mM.

**Q.** What about the kcat (other: Y467stop) of the same protein?
**A.** The kcat was 0.0417 ± 0.013 s⁻¹.

**Q.** And the kcat/Km (other: Y467stop)?
**A.** The kcat/Km was 1.33 M⁻¹ s⁻¹.

B6: E. coli aspartase truncated variant D474stop, residues 1-473 of SEQ ID NO: 1 (Escherichia coli K-12) (protein)
chain: MSNNIRIEEDLLGTREVPADAYYGVHTLRAIENFYISNNKISDIPEFVRGMVMVKKAAAMANKELQTIPKSVANAIIAACDEVLNNGKCMDQFPVDVYQGGAGTSVNMNTNEVLANIGLELMGHQKGEYQYLNPNDHVNKCQSTNDAYPTGFRIAVYSSLIKLVDAINQLREGFERKAVEFQDILKMGRTQLQDAVPMTLGQEFRAFSILLKEEVKNIQRTAELLLEVNLGATAIGTGLNTPKEYSPLAVKKLAEVTGFPCVPAEDLIEATSDCGAYVMVHGALKRLAVKMSKICNDLRLLSSGPRAGLNEINLPELQAGSSIMPAKVNPVVPEVVNQVCFKVIGNDTTVTMAAEAGQLQLNVMEPVIGQAMFESVHILTNACYNLLEKCINGITANKEVCEGYVYNSIGIVTYLNPFIGHHNGDIVGKICAETGKSVREVVLERGLLTEAELDDIFSVQNLMHPAYKAKRYT
notes: as for B1
**Q.** How did the Km (other: D474stop) turn out when B6 was run?
**A.** The Km was 2.8 mM.

**Q.** What about the kcat (other: D474stop) of the same protein?
**A.** Its kcat is 0.712 ± 0.127 s⁻¹.

**Q.** What about the kcat/Km (other: D474stop) of the same protein?
**A.** The kcat/Km was 255 M⁻¹ s⁻¹.
